According to patent publication JPH11332594A (dated 1999):

Biological target: T1, ヒト可溶性CD4 (human soluble CD4 made in Example 1, C-terminal FLAG-tag, expressed in COS7 cells) (human, UniProt P01730 26-396)
T1 construct: extracellular domain; Purified on anti-FLAG-M2 gel; also called ヒトCD4抗原
Assay: SPR, BIA-core2000; human soluble CD4 amine-coupled to CM5 chip, antibody as analyte (50 μg/ml)

| Kd | koff | Binder |
| --- | --- | --- |
| 0.808 nM | 5.33e-06 s⁻¹ | 4H5抗体 (anti-human CD4 mouse monoclonal antibody from Mouse-Mouse hybridoma 4H5, FERM P-16807) (antibody, V domains shown, Whole mouse monoclonal antibody from the hybridoma; also called 4H5 antibody; 抗ヒトCD4抗体(4H5抗体)) VH: QVQLQQSGPELVKPGASVKMSCKASGYTFTDYVINWLNQRTGQGLEWIGEIYPGSGSAYYNEMFKGKATLTADKSSNTAYMQLSSLTSEDSAVYFCARRGTGTGFAYWGRGTLVTVSA VL: not shown |
| 1.24 nM | 2.92e-05 s⁻¹ | キメラ4H5抗体 (human-mouse chimeric anti-CD4 antibody expressed from plasmid pG14H5 in COS7 cells) (antibody, V domains shown, The human light chain constant region is not specified; also called chimeric 4H5 antibody; ヒトマウスキメラ抗CD4抗体) VH: LQQSGPELVKPGASVKMSCKASGYTFTDYVINWLNQRTGQGLEWIGEIYPGSGSAYYNEMFKGKATLTADKSSNTAYMQLSSLTSEDSAVYFCARRGTGTGFAYWGRGTLVTVSA VL: LTQSPASLAVSLGQRATISCKASQSVDYDGDSYMNWYQQKPGQPPKLLIYAASNLESGIPARFSGSGSGTDFTLNIHPVEEEDAATYYCQQSSEDPPTFGGGTKLEIK |
